The RNAGym collection of RNA variant scans (doi:10.7554/elife.80360)

B1: HDV Ribozyme (parent)
chain: GGCCGGCAUGGUCCCAGCCUCCUCGCUGGCGCCGGCUGGGCAACAUUCCGAGGGGACCGUCCCCUCGGUAAUGGCGAAUGGGACCCA

Variants of: B1
Experiment: self-cleavage, relative activity (ratio to wild type); higher = more cleavage; co-transcriptional

| Variant | self-cleavage |
| --- | --- |
| GGCCCGCAUGGUCCCAGCCUCCUCGCUGGCGCCGGCUGGGCAACAUUCCGAGGGGACCGUCCCCUCGGUAAUGGCGAAUGGCACCCA [G5C G82C] | 0 |
| GGCCGGCAUGGUCCCAGCCACCUCGCUGGCGCCGGCUGGACAACAUUCCGAGGGGACCGUCCCCUCGGUAAUGGCGAAUGGGACCCA [U20A G40A] | 0.0426 |
| GGCCGGCAUGGUCCCAGUAUCCUCGCUGGCGCCGGCUGGGCAACAUUCCGAGGGGACCGUCCCCUCGGUAAUGGCGAAUGGGACCCA [C18U C19A] | 0.0906 |
| GGCCGGCAUGGUCCCGGCCUCCUCGCUGGUGCCGGCUGGGCAACAUUCCGAGGGGACCGUCCCCUCGGUAAUGGCGAAUGGGACCCA [A16G C30U] | 0.665 |
| GGCCCUCAUGGUCCCAGCCUCCUCGCUGGCGCCGGCUGGGCAACAUUCCGAGGGGACCGUCCCCUCGGUAAUGGCGAAUGGGACCCA [G5C G6U] | 0.185 |
| GGCCGGCAUGGUCCCAGCCUCCUCGCUGGCGCCGGCUGGGCAACAUUCCUUGGGGACCGUCCCCUCGGUAAUGGCGAAUGGGACCCA [G50U A51U] | 1.05 |
| GGCCGGCAUGGUCCCAGCCUCUUCGCUGGCGCCGGCUGGGCAACAUUCCGAGGGGACCGUCCCCUCGGUAAUGGCGAGUGGGACCCA [C22U A78G] | 0.314 |
| GGCCGGCAUGGUUCCAGCCUCCUCGCUGGCGCCGGCUGGGCAACAUUCCGAGGGGACCGUCCCCUCUGUAAUGGCGAAUGGGACCCA [C13U G67U] | 0.712 |
| GGCCGGCAUGGUCCCAGCCUCCUCGCUGGCGCCGGCUGGGCAACACUCCGAGGGGACCGUCCCCUCGGUAAUGGCGACUGGGACCCA [U46C A78C] | 0.0426 |
| GGCCGGCAUGGUCCCAGCCUCCUCGCUGGCGCCGGCUGGGCAACAUUCCGAGGGGACAGUCCCCUCGGUAAUGGCGAAUUGGACCCA [C58A G80U] | 0.21 |
| GGCCGGCAUGGUCCCAGCCUCCUCGCUGGCGCCGGCUGGGCAACAUUCCGACGGGACCGUUCCCUCGGUAAUGGCGAAUGGGACCCA [G52C C61U] | 0.963 |
| GGCCGGCAUAGUCCCAGCCUCCUCGCUGGCGCCGGCUGGGCAACAUUCCGAGGGGACCGUCCCCUCGGUAAUGGCGAGUGGGACCCA [G10A A78G] | 0.302 |
| GGCCGGCAUGGUCCCAGCCUCCACGCUGGCGCCGGCUGGGCAACAUUCCGAGGGGACCGUCCCCUCGGUAAUGGUGAAUGGGACCCA [U23A C75U] | 0.346 |
| GGCCGGCAUGGUCCCAGCCUCCUCGCUGGCGCCGGCUGGGCAAUAAUCCGAGGGGACCGUCCCCUCGGUAAUGGCGAAUGGGACCCA [C44U U46A] | 0.767 |
| GGCCGGCUUGGUCCCAGCCUCCUCCCUGGCGCCGGCUGGGCAACAUUCCGAGGGGACCGUCCCCUCGGUAAUGGCGAAUGGGACCCA [A8U G25C] | 0.277 |
| GGCCGGCAUGGUCCCAGCCUCCUCGCUGGCGCCGGCUGGGCGACAUUCCGAGGGGACCGUCCCCUCGGUAAUGGCGCAUGGGACCCA [A42G A77C] | 0.0723 |
| GGCCGGCAUUGUCCCAGCCUCCUCGCUGGCGCCGGCUGGGCAACAUUCCGAGGGGACCGUCCCCUCGGUAAUGGCGCAUGGGACCCA [G10U A77C] | 0.0396 |
| GGCCGGCAUGAUCCCAGCCUCCUCGCUGGCGCCGGCUGGGCAACAUUCCGAGGGGACCGUCCCCUCGGUAAUGGCGAAUGGGACGCA [G11A C85G] | 0.678 |
| GGCCGGCAUGGUCCCAGCCUCCUCGCUGGCGCCGGCUGGGCAACAUUCCGGGGGGACCGUCCCCUCGGUAACGGCGAAUGGGACCCA [A51G U72C] | 0.864 |
| GGCCGCCAUGGUCCCAGCCUCCUCGCUGGCGCCGGCUGGGCAACAUUCCGAGGGGACCGUCCCCUCGGUAAUGGCGAAUUGGACCCA [G6C G80U] | 0.0692 |
| GGGCGGCAUGGUCCCAGCCUCCUCGCUGGCGCCGGCUGGGCAACAUUCCGCGGGGACCGUCCCCUCGGUAAUGGCGAAUGGGACCCA [C3G A51C] | 0.779 |
| GGCCGGCAUGGUGCCAGCCUCCUCGCUGGCGCCGGCUGGGCAACAUUCCGCGGGGACCGUCCCCUCGGUAAUGGCGAAUGGGACCCA [C13G A51C] | 0.0723 |

| Variant | self-cleavage |
| --- | --- |
| GGCCGGCAUGGUCCUAGCUUCCUCGCUGGCGCCGGCUGGGCAACAUUCCGAGGGGACCGUCCCCUCGGUAAUGGCGAAUGGGACCCA [C15U C19U] | 0.0767 |
| GGCCGGCAUGGACCCAGCCUCCUCGCUGGCGCCGGCUGGGCAACAUUCCGAGGGGACCGUCCCUUCGGUAAUGGCGAAUGGGACCCA [U12A C64U] | 0.178 |
| GGCCGGCAUGGUCCCAGCCUCCUCGCUGGCGCCGGCUGGGCAACAUUCCGAGGGUACCGUCCCAUCGGUAAUGGCGAAUGGGACCCA [G55U C64A] | 0.94 |
| GACCGGCAUGGUCCCAGCCUCCUCGCCGGCGCCGGCUGGGCAACAUUCCGAGGGGACCGUCCCCUCGGUAAUGGCGAAUGGGACCCA [G2A U27C] | 0.125 |
| GGCCGGCAUGGUCCCAGCCUCCUCGCUGGCGCCGGCUGGGCAACAUUCCGAGCAGACCGUCCCCUCGGUAAUGGCGAAUGGGACCCA [G53C G54A] | 1.08 |
| GGCCGGCAUAGUCCCAGCCUCCUCGCUGGCGCCGGCUGGGCAAAAUUCCGAGGGGACCGUCCCCUCGGUAAUGGCGAAUGGGACCCA [G10A C44A] | 0.321 |
| GGCCGGCAUGGUCCCAGCCUCCUCGCUGGCGCCGGCUGGGCAACAUUCCGAGGGGACCGUCCCCUCGGUAAUGGCGAAUGGGACCGA [C86G] | 0.983 |
| GGCCGGCAUGGUCCCAGCCUCCUCGCUGGCGCCGGCUGGGCGACAUUCCCAGGGGACCGUCCCCUCGGUAAUGGCGAAUGGGACCCA [A42G G50C] | 0.287 |
| GGCCGGCAUGGUCCCAGCCUCCUCGCUAGCGCCGGCAGGGCAACAUUCCGAGGGGACCGUCCCCUCGGUAAUGGCGAAUGGGACCCA [G28A U37A] | 0.0773 |
| GGCCGGCAUGGUCCCAGCCUCCUCGCUGGCGCCGGCUGGGCAAUAUUCCGAGGGGACCGUCCCCUCGGUUAUGGCGAAUGGGACCCA [C44U A70U] | 0.955 |
| GGCCGGCAUGGUCCCAGCCUCCUCGCUGGCGCCGGCUGGGCAACAUUCCGAGGGGACCGUCCCCUCGGUAAUGGCGUAUGCGACCCA [A77U G81C] | 0.157 |
| GGCUGGCAUGGUCCCAGCCUCCUCGCUGGCGCCGGCUGGUCAACAUUCCGAGGGGACCGUCCCCUCGGUAAUGGCGAAUGGGACCCA [C4U G40U] | 0.48 |
| GGCCGGCAUGGUCCCAGCCUCCUCGCUGGCGACGGCUGGGCAACAUUCCGAGGGGACCGUCCCCUCGGUAAUGGCGAAUGGGACCCA [C32A] | 0.21 |
| GGCCGGUAUGGUCCCAGCCUCCUCGCUGGCGCCGGCUGGGCAACAUUCCGAGAGGACCGUCCCCUCGGUAAUGGCGAAUGGGACCCA [C7U G53A] | 0.964 |
| GGCCGGCAUGGUCCCAGCCUCCUCGCUGGCGCCGGCUGGGCAACAUUCCGAUGGGACCGUCCCCUCGGUAAUGGCGAAUGGGCCCCA [G52U A83C] | 0.259 |
| GGCCGGCAUGGUCCCAGCCUCCUCGCUGGCGCUGGCUGGGCAACAUUCCGAGGGGACCGUCCCCUCGGUAAAGGCGAAUGGGACCCA [C33U U72A] | 0.346 |
| GGCCGGCAUUGUCCCAGCCUCCUCGCUGGCGCCGGCUGGGCAACAUUCCGAGGGGACCGUCCCCUCGGUGAUGGCGAAUGGGACCCA [G10U A70G] | 0.858 |
| GGCCGGCAUGGUCCCAGCCUCCUCGUUGGCGCCGGCUGGGCAACAUUCCGAGGGGACCGUCCCCUCGGUAAUGGCGAAUGAGACCCA [C26U G81A] | 0.888 |
| GGCCGGCAUGGUCCCAGCCUCCUCGCUGGCGCCGGCUGGGCAACAUUCCGAGGGGACCAUCCCCUCGGUAAUGGCGAAUGGGACCAA [G59A C86A] | 0.842 |
| GGCCGGCAUGGUCUCAGCCUCCUCGCUGGCGCCGGCUGGGCAACAUUCCGAGGGAACCGUCCCCUCGGUAAUGGCGAAUGGGACCCA [C14U G55A] | 1.21 |
| GGCCGGCAUGGUCCCAGCCUCCUCGCUGGCGCCGGCUGGGCAACAUUCCGAGCGGACCGUCCCCUCGGUAAUGGCGAAUUGGACCCA [G53C G80U] | 0.293 |
| GGCCGGCAUGGUCCCAGCCUCCUCGCUGGCGCCGGCUGGGCAACAUUCCGAGGGGACCGUCCCCUCGGUAAUGUCGAUUGGGACCCA [G74U A78U] | 0.332 |

| Variant | self-cleavage |
| --- | --- |
| GUCCGGCAUGGUCCCAGCCUUCUCGCUGGCGCCGGCUGGGCAACAUUCCGAGGGGACCGUCCCCUCGGUAAUGGCGAAUGGGACCCA [G2U C21U] | 0.0542 |
| GGCCGGCAUGGUCCCAGCCUCCUCGCUGGCGUCGGCUGGGCAACAUUCCGAGGGGACCGUCCCCUCGGUAAUGGCGUAUGGGACCCA [C32U A77U] | 0.496 |
| GGCCGGCAUGGUCCCAGCCUCCUCGCUGUCGCCCGCUGGGCAACAUUCCGAGGGGACCGUCCCCUCGGUAAUGGCGAAUGGGACCCA [G29U G34C] | 0.146 |
| GGCCGGUAUGGUCCCAGCCUCCUCGCUGGCGCCGGCUGGGCAACAUUGCGAGGGGACCGUCCCCUCGGUAAUGGCGAAUGGGACCCA [C7U C48G] | 0.831 |
| GGCCGGCAUGGUCCCAGGGUCCUCGCUGGCGCCGGCUGGGCAACAUUCCGAGGGGACCGUCCCCUCGGUAAUGGCGAAUGGGACCCA [C18G C19G] | 0 |
| GGCCGGCAUGGUCCCAGCCUCCUCGCUGGCGCCGGCUGGGCAACAUUCCGAGGGGACCGCCCCCUGGGUAAUGGCGAAUGGGACCCA [U60C C66G] | 1.02 |
| GGCCGGCAUGGUCCCAGCCUCCUCGGUGGCGCCGGCUGGGCAACAUUCCGAGGGGACCGUCCCCUCGGUAAUGGCGAAUGGGUCCCA [C26G A83U] | 0.917 |
| GGCCGGCAUGGUCCCAGCGUCCUCGCUGGCGCCGGCUGGGCAACAAUCCGAGGGGACCGUCCCCUCGGUAAUGGCGAAUGGGACCCA [C19G U46A] | 0 |
| GGCCGGCAUGGUCCCAGCCUCUUCGCUGGCGCCGGCUGGGCAACAUUCCGAGGGGACCGACCCCUCGGUAAUGGCGAAUGGGACCCA [C22U U60A] | 0.623 |
| GGCCGGCAUGGUCCCAGCCUCCUCGCUGGCGCCGGCUGGGCAACAUUCCGAGGGCACCGACCCCUCGGUAAUGGCGAAUGGGACCCA [G55C U60A] | 1.05 |
| UGCCGGCAUGGUCCCAGCCUCCUCGCUGGCGCCGGCUGGGCAACAUUCCGAGGGGACCGUCCCCUCGGUAAUGGCGAAUCGGACCCA [G1U G80C] | 0.272 |
| GGCCGGCAUGGUCCCAGCCUCCUCGCUGACGCGGGCUGGGCAACAUUCCGAGGGGACCGUCCCCUCGGUAAUGGCGAAUGGGACCCA [G29A C33G] | 0.0346 |
| GGCCGGCAUGGUCGCAGCCUCCUCGCUGGCGCCGGCUGGGCAACAUUCCGAGGGGACCGUCCCCUCGGUAAUUGCGAAUGGGACCCA [C14G G73U] | 0.0755 |
| GGCCGGCAUGGUCCCAGCCUCCUCGCUGGCGCCGCCUUGGCAACAUUCCGAGGGGACCGUCCCCUCGGUAAUGGCGAAUGGGACCCA [G35C G38U] | 0.0875 |
| GGCCGGCAUGGUCCCAGCCUCCUCGCUGGCGCCAGCUGGGCAACAUUCCGAGGGGACAGUCCCCUCGGUAAUGGCGAAUGGGACCCA [G34A C58A] | 0.203 |
| GGCCGGCAUGGUCGCAGCCUCCUCGCUGGCGCCGGCUGGGCAACAUUCCGAGGGGACCGUCCCCUCGGUAAUGCCGAAUGGGACCCA [C14G G74C] | 0.0639 |
| GGCCGGCAUGGUCCCAGCCUCCUCGCUGGCCCCGGCUGGGCAACAUUCCGAGGGGACCGUCCCCUCGGUAAUGGCGAAUGGGACCCU [G31C A87U] | 0.328 |
| GGCCGGCAUGGUCCCAGCGUCCUCGCUGGCGCCGGCUGGGCAACAUUCCGAGGGGACCGUCCCCUCGGUAAUGGAGAAUGGGACCCA [C19G C75A] | 0.0773 |
| GGCCGGCAUGGUCCCAGCCUCCUCGCUGGCGCCGGCUGGGUAACAUUGCGAGGGGACCGUCCCCUCGGUAAUGGCGAAUGGGACCCA [C41U C48G] | 0.955 |
| GGCCGGCAUGGUCCCAGCCUCCUCGCUGGCGCCGGCUCGGCAACAUUCCGAGGGGAACGUCCCCUCGGUAAUGGCGAAUGGGACCCA [G38C C57A] | 0.102 |
